Results on one substance are retold here after patent US20080045450A1, “GLP-2 Derivatives” (priority 1996, published 2008).

The nature of the data set: Helix content by circular dichroism (CD) at 222 nm in aqueous solution. The data set is classed as physicochemical. From the text:
The size of the partially helical, micelle-like aggregates may be estimated by size-exclusion chromatography. Similarly, the apparent (critical micelle concentrations) CMC's of the peptides may be estimated from the concentration dependent fluorescence in the presence of appropriate dyes (e.g. Brito, R. & Vaz, W. (1986) Anal. Biochem. 152, 250-255).
For the GLP-2 derivatives forming partially structured micellar-like aggregates in aqueous solution the helix content remains constant above 30% at concentrations of 10 μM. The aggregated structured conformation is an inherent property of the derivative present in water or dilute aqueous buffer without the need for any additional structure-inducing components. Note that the CD signal is proportional to the average content of α-helix in the peptides, i.e., a CD value of −1 corresponds to 10% α-helix content under these conditions.
A general note: CD spectra are sensitive to the conformation of chiral molecules.

As to “native GLP-2: human glucagon-like peptide-2, a 33 amino acid residue peptide; parent peptide of the derivatives”, the helix content is, setting by setting: (at 500 μM concentration, in parallel with peptide self-association) 30-35%; (starting value at low peptide concentration, before the increase seen with increasing concentration) 10-15%.
